Experimental data taken from the Immune Epitope Database (IEDB).

Tests used:
[1] = target: HLA-B*15:01; assay: IEDB peptide-MHC binding, purified MHC/direct/fluorescence; filed as Kd, often an IC50 or EC50 that approximates it; ≥ and ≤ were set here for values at or beyond the usual limits of such assays
[2] = target: HLA-A*69:01; assay: as above
[3] = target: HLA-B*46:01; assay: as above; settings: source organism: Influenza A virus (A/chicken/Hubei/wk/1997(H5N1))
[4] = target: HLA-A*26:01; assay: as above; settings: source organism: Influenza A virus(A/swine/Shandong/fNY/2003(H9N2))
[5] = target: HLA-B*15:09; assay: as above
[6] = target: HLA-A*02:01; assay: as above
[7] = target: HLA-B*40:01; assay: as above
[8] = target: HLA-B*58:01; assay: as above
[9] = target: HLA-A*11:01; assay: as above
[10] = target: HLA-B*18:01; assay: as above
[11] = target: HLA-B*07:02; assay: as above
[12] = target: HLA-A*31:01; assay: as above
[13] = target: HLA-B*44:02; assay: as above
[14] = target: HLA-B*08:02; assay: as above
[15] = target: HLA-A*01:01; assay: as above
[16] = target: HLA-B*27:05; assay: as above
[17] = target: HLA-A*24:02; assay: as above
[18] = target: HLA-A*03:01; assay: as above
[19] = target: HLA-B*08:01; assay: as above
[20] = target: HLA-B*45:01; assay: IEDB peptide-MHC binding, purified MHC/competitive/radioactivity; filed as Kd, often an IC50 or EC50 that approximates it; ≥ and ≤ were set here for values at or beyond the usual limits of such assays
[21] = target: HLA-B*40:01; assay: as above
[22] = target: HLA-B*40:02; assay: as above
[23] = target: HLA-B*18:01; assay: as above
[24] = target: HLA-B*44:02; assay: as above
[25] = target: HLA-B*44:03; assay: as above
[26] = target: HLA-B*15:01; assay: IEDB peptide-MHC binding, purified MHC/competitive/fluorescence; ≥ and ≤ were set here for values at or beyond the usual limits of such assays
[27] = target: HLA-A*02:01; assay: as above; settings: source organism: Zaire ebolavirus
[28] = target: HLA-A*24:02; assay: as above
[29] = target: HLA-A*11:01; assay: as above; settings: source organism: Vaccinia virus Copenhagen
[30] = target: HLA-B*35:01; assay: IEDB peptide-MHC binding, purified MHC/competitive/fluorescence; filed as Kd, often an IC50 or EC50 that approximates it; ≥ and ≤ were set here for values at or beyond the usual limits of such assays
[31] = source organism: Influenza A virus (A/chicken/Hubei/wk/1997(H5N1))
[32] = source organism: Influenza A virus(A/swine/Shandong/fNY/2003(H9N2))
[33] = source organism: Influenza A virus (A/Puerto Rico/8/34/Mount Sinai(H1N1))
[34] = source organism: SARS coronavirus Tor2
[35] = source organism: Zaire ebolavirus
[36] = source organism: Mammarenavirus lassaense
[37] = source organism: Vaccinia virus Copenhagen
[38] = source organism: Influenza A virus (A/equine/New York/1/1999(H3N8))
[39] = source organism: Giardia lamblia ATCC 50803

NPALRMKWM
Kd [1, 31]: ≥ 20 µM | Kd [2, 31]: ≥ 20 µM | Kd [3]: ≥ 20 µM | Kd [4]: ≥ 20 µM | Kd [5, 32]: ≥ 20 µM | Kd [6, 31]: ≥ 20 µM | Kd [7, 31]: ≥ 20 µM | Kd [8, 31]: ≥ 20 µM | Kd [9, 31]: ≥ 20 µM | Kd [10, 31]: ≥ 20 µM | Kd [11, 33]: 0.091 µM | Kd [12, 31]: ≥ 20 µM | Kd [13, 31]: ≥ 20 µM | Kd [14, 32]: ≥ 20 µM | Kd [15, 31]: ≥ 20 µM | Kd [16, 31]: ≥ 20 µM | Kd [17, 31]: ≥ 20 µM | Kd [18, 31]: ≥ 20 µM | Kd [19, 33]: 1.41 µM

PEFYEAMYT
Kd [20, 34]: 3.4 µM | Kd [21, 34]: 3.74 µM | Kd [22, 34]: 5.05 µM | Kd [23, 34]: ≥ 52.4 µM | Kd [24, 34]: 17.4 µM | Kd [25, 34]: 4.91 µM

QAFEAGVDF
IC50 [26, 35]: 30.6 µM | IC50 [27]: ≥ 475 µM | IC50 [28, 35]: 29.4 µM

SDLDMLTQS
Kd [20, 36]: ≥ 77.7 µM | Kd [21, 36]: ≥ 24.7 µM | Kd [22, 36]: 6.1 µM | Kd [23, 36]: ≥ 77.5 µM | Kd [24, 36]: ≥ 42.2 µM | Kd [25, 36]: ≥ 78.1 µM

SEQSLRLVDA
Kd [20, 34]: 0.00586 µM | Kd [21, 34]: 18.7 µM | Kd [22, 34]: 0.47 µM | Kd [23, 34]: 3.61 µM | Kd [24, 34]: 0.0916 µM | Kd [25, 34]: 0.436 µM

SQMTSTFIM
IC50 [26, 37]: 1.75 µM | IC50 [29]: 1.59 µM | IC50 [28, 37]: 2.16 µM

VAGGTSSVY
Kd [1, 33]: 0.129 µM | Kd [2, 38]: ≥ 20 µM | Kd [5, 32]: ≥ 20 µM | Kd [6, 38]: ≥ 20 µM | Kd [7, 38]: ≥ 20 µM | Kd [8, 38]: 2.89 µM | Kd [9, 38]: ≥ 20 µM | Kd [11, 38]: ≥ 20 µM | Kd [12, 38]: ≥ 20 µM | Kd [15, 38]: ≥ 20 µM | Kd [16, 38]: ≥ 20 µM | Kd [17, 38]: ≥ 20 µM | Kd [18, 38]: ≥ 20 µM | Kd [19, 38]: ≥ 20 µM | Kd ([30]; source organism: Influenza A virus (A/quail/Hong Kong/SF550/00(H6N1))): 0.0109 µM

VETVSLAGSY
Kd [20, 34]: 11.7 µM | Kd [21, 34]: 17.7 µM | Kd [22, 34]: ≥ 70.8 µM | Kd [23, 34]: 1.68 µM | Kd [24, 34]: 3.22 µM | Kd [25, 34]: 1.29 µM

VKYLEGHGF
IC50 [26, 35]: ≥ 72.1 µM | IC50 [27]: ≥ 160 µM | IC50 [28, 35]: 14.4 µM

WASRELERF
Kd ([8]; source organism: Human immunodeficiency virus type 1 BH10): 0.0275 µM | Kd ([30]; source organism: Human immunodeficiency virus 1): 0.0568 µM

YIASIFMPR
Kd [1, 39]: ≥ 20 µM | Kd [2, 39]: ≥ 20 µM | Kd [5, 39]: ≥ 20 µM | Kd [7, 39]: ≥ 20 µM | Kd [8, 39]: ≥ 20 µM | Kd [9, 39]: 0.0448 µM | Kd [10, 39]: ≥ 20 µM | Kd [11, 39]: ≥ 20 µM | Kd [12, 39]: 0.011 µM | Kd [13, 39]: ≥ 20 µM | Kd [14, 39]: ≥ 20 µM | Kd [15, 39]: ≥ 20 µM | Kd [16, 39]: ≥ 20 µM | Kd [17, 39]: ≥ 20 µM | Kd [18, 39]: 0.335 µM

YQATGFGTN
IC50 [26, 35]: 22.7 µM | IC50 [27]: ≥ 146 µM | IC50 [28, 35]: ≥ 231 µM
